Kd, koff and kon data for one molecule are collected here from patent US20190127470A1 (TRUSTEES OF DARTMOUTH COLLEGE, published 2019).

This assay has as its target T1, g2.5-11 scFv-Fc (UniProt P01857-1 1-330 = IgG part).
T1 construct: domain: heavy chain constant regions (CH1-CH3); also called g2.5-3 (identical at the amino acid level); Fg2.5-3
Description: Octet BLI, scFv-Fc loaded on anti-human CH1 tips, 0-500 nM B7H6-Ig in solution, global fit. Here is the method:
Anti-Human CH1 tips were activated with 0.05 mg/mL a2.5-11 scFv-Fc protein for 600 seconds to ensure saturation of tips with […]. Tips were then transferred to PBS+0.1% Tween (PBS-T)-containing wells for baseline measurements of scFv-Fc-loaded tips before transferring to antigen-containing wells ranging from 0-500 nM B7H6-Ig. Samples were double-referenced using non-activated tips and PBS-T only containing wells. The Octet Analysis software was used for global kinetic fits which determine a single KD measurement for each antigen using association and dissociation curves for all concentrations tested.
Background: Biolayer interferometry detects binding as a change in optical thickness at a sensor tip.

T1 sequence (P01857 other isoform, or with tags, fused parts or gaps limits assumed): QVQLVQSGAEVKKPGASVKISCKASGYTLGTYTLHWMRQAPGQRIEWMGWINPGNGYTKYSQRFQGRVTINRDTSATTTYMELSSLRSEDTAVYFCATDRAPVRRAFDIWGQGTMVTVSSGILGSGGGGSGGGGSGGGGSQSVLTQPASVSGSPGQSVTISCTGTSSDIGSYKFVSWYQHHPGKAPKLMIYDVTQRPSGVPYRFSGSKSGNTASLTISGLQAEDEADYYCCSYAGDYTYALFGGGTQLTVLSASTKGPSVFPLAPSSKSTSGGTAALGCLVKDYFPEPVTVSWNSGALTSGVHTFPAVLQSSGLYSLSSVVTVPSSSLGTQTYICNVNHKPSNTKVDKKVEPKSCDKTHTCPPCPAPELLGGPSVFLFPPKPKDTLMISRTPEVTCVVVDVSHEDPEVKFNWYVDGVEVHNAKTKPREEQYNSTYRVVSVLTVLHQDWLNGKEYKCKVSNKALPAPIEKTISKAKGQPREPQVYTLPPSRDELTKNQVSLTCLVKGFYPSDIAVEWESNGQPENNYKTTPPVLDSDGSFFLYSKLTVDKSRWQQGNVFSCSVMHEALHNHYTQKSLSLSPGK

B1: B7H6-Ig, a fusion protein containing the extracellular portion of B7H6 and the Fc portion of a Mouse IgG2a (Fc fusion, UniProt Q68D85 25-262, looked up)
chain: DLKVEMMAGGTQITPLNDNVTIFCNIFYSQPLNITSMGITWFWKSLTFDKEVKVFEFFGDHQEAFRPGAIVSPWRLKSGDASLRLPGIQLEEAGEYRCEVVVTPLKAQGTVQLEVVASPASRLLLDQVGMKENEDKYMCESSGFYPEAINITWEKQTQKFPHPIEISEDVITGPTIKNMDGTFNVTSCLKLNSSQEDPGTVYQCVVRHASLHTPLRSNFTLTAARHSLSETEKTDNFS
notes: extracellular domain; also called soluble B7H6-Ig antigen; not shown: Fc portion of a Mouse IgG2a
For orientation: Kd means a measure of binding affinity in units of concentration. A low value points to a tighter complex. A word on the koff: it is the rate constant with which the complex falls apart. A higher koff goes with fast dissociation. By kon is commonly meant a measure of how fast the partners come together. Read a high kon as faster complex formation. Regarding B1, the Kd amounted to 25.7 nM, the koff was found to be 0.00035 s⁻¹ and the kon was 13700 M⁻¹ s⁻¹.
